Key:
linear hepta-ubiquitin = linear hepta-ubiquitin (UniProt P0CG48 1-76; P0CG48 1-76; P0CG48 1-76; P0CG48 1-76; P0CG48 1-76; P0CG48 1-76; …); test: co-IP
linear tetra-ubiquitin = linear tetra-ubiquitin (UniProt P0CG48 1-76; P0CG48 1-76; P0CG48 1-76; P0CG48 1-76); test: co-IP
Sequence of linear tetra-ubiquitin (P0CG48 1-304, one chain of several): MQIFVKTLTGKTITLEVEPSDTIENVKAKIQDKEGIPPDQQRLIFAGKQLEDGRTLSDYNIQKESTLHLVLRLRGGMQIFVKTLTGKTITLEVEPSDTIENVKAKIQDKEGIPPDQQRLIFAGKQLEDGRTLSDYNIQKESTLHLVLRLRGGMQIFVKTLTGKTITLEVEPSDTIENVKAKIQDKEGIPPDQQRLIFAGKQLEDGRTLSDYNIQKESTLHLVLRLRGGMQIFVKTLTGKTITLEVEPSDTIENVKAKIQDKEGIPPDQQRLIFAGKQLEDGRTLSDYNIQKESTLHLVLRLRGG

Sequence of linear hepta-ubiquitin (P0CG48 1-532, one chain of several): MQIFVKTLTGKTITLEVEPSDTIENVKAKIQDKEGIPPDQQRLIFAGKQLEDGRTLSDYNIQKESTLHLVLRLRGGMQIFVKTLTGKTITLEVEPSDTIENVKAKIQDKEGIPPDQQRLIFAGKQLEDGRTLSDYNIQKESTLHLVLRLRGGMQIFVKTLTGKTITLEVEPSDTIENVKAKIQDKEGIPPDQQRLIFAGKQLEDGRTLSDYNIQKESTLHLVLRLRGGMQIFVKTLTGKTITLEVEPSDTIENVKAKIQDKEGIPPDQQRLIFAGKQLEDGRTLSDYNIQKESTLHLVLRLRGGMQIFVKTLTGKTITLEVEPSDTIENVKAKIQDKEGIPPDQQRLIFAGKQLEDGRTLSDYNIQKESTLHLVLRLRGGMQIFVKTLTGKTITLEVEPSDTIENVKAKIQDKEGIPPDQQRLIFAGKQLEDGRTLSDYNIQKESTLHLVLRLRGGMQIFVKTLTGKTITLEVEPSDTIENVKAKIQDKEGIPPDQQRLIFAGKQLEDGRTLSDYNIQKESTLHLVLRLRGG

B1: HA-tagged N4BP1 (full length) (natural protein, human, UniProt O75113 1-896, looked up)
chain: MAARAVLDEFTAPAEKAELLEQSRGRIEGLFGVSLAVLGALGAEEPLPARIWLQLCGAQEAVHSAKEYIKGICEPELEERECYPKDMHCIFVGAESLFLKSLIQDTCADLCILDIGLLGIRGSAEAVVMARSHIQQFVKLFENKENLPSSQKESEVKREFKQFVEAHADNYTMDLLILPTSLKKELLTLTQGEENLFETGDDEVIEMRDSQQTEFTQNAATGLNISRDETVLQEEARNKAGTPVSELTKQMDTVLSSSPDVLFDPINGLTPDEEALSNERICQKRRFSDSEERHTKKQFSLENVQEGEILHDAKTLAGNVIADLSDSSADSENLSPDIKETTEEMEYNILVNFFKTMGYSQEIVEKVIKVYGPSTEPLLLLEEIEKENKRFQEDREFSAGTVYPETNKTKNKGVYSSTNELTTDSTPKKTQAHTQQNMVEKFSQLPFKVEAKPCTSNCRINTFRTVPIEQKHEVWGSNQNYICNTDPETDGLSPSVASPSPKEVNFVSRGASSHQPRVPLFPENGLHQQPEPLLPNNMKSACEKRLGCCSSPHSKPNCSTLSPPMPLPQLLPSVTDARSAGPSDHIDSSVTGVQRFRDTLKIPYKLELKNEPGRTDLKHIVIDGSNVAITHGLKKFFSCRGIAIAVEYFWKLGNRNITVFVPQWRTRRDPNVTEQHFLTQLQELGILSLTPARMVFGERIASHDDRFLLHLADKTGGIIVTNDNFREFVNESVSWREIITKRLLQYTFVGDIFMVPDDPLGRSGPRLEEFLQKEVCLRDMQPLLSALPNVGMFDPSFRVPGTQAASTSHQPPTRIQGAPSSHWLPQQPHFPLLPALPSLQQNLPMPAQRSSAETNELREALLKIFPDSEQRLKIDQILVAHPYMKDLNALSAMVLD
Question: Does B1 bind (linear hepta-ubiquitin)?
Answer: Result: binds

Question: Does B1 bind (linear tetra-ubiquitin)?
Answer: Result: binds

Reference: paper doi:10.1101/2020.10.21.349357 (bioRxiv, 2020)
